Earlier results on three compounds are cited in patent US11419917B2, “Treatment for SARS-CoV-2 and other coronaviruses” (priority 2020, dated 2022).

The conditions of series [1]: in vivo.
For series [2] the following is noted: patients treated for 3 days compared to placebo.

“Also recorded” adds a separate entry of the source. Like-named read-outs stand apart in the source and are kept apart here.

Broadly, the half-life is the time in which the quantity being followed falls by half. With “ANP: A-type natriuretic peptide, a 28-amino acid peptide degraded from pro ANP”, in series [1], the half-life result is recorded as “approximately 10 minutes; also recorded: several”.

In the case of `CC[C@H](C)[C@@H]1NC(=O)[C@H](CCCNC(=N)N)NC(=O)[C@H](CC(=O)O)NC(=O)[C@H](CCSC)NC(=O)[C@H](CCCNC(=N)N)NC(=O)CNC(=O)CNC(=O)[C@H](Cc2ccccc2)NC(=O)[C@@H](NC(=O)[C@H](CO)NC(=O)[C@H](CO)NC(=O)[C@H](CCCNC(=N)N)NC(=O)[C@H](CCCNC(=N)N)NC(=O)[C@H](CC(C)C)NC(=O)[C@@H](N)CO)CSSC[C@@H](C(=O)N[C@@H](CC(N)=O)C(=O)N[C@@H](CO)C(=O)N[C@@H](Cc2ccccc2)C(=O)N[C@@H](CCCNC(=N)N)C(=O)N[C@@H](Cc2ccc(O)cc2)C(=O)O)NC(=O)CNC(=O)[C@H](CC(C)C)NC(=O)CNC(=O)[C@H](CO)NC(=O)[C@H](CCC(N)=O)NC(=O)[C@H](C)NC(=O)CNC1=O` [Carperitide], the “decrease in infarct size” value in series [2] is roughly 15%.

Turning to “BNP: B-type natriuretic peptide, a 32-amino acid peptide; generic name Nesiritide”, the half-life in series [1] is 22 min; in series [1] (listed as B-type NP), 20 min.
